The record followed here is publication PMC7505474, “Toll-like receptor 4-mediated inflammation triggered by extracellular IFI16 is enhanced by lipopolysaccharide binding” (PLoS Pathogens, 2020).

Data set [1] has as its system gram-negative bacteria (E. coli, Klebsiella pneumoniae). Kind of data set: Whole cell ELISA on formalin-fixed gram-negative bacteria. Type of data set: binding. The note with it: formalin-fixed bacteria as solid phase. The method, then: (§1) For whole-cell ELISA, different strains of bacteria (i.e., gram-positive: Staphylococcus aureus, Staphylococcus epidermidis and Streptococcus pyogenes; gram-negative: Escherichia coli and Klebsiella pneumonia) were grown in LB medium without antibiotics and, after washing with 1X PBS, fixed in 0.5% formalin O/N at 4°C. Subsequently, the bacteria were diluted to an OD600 of 0.5 and were used to coat microtiter plates O/N at 37°C. After blocking, increasing concentrations of IFI16 were added to the wells and incubated for 2 h at RT. Anti-IFI16 antibodies against the N-terminus of the protein and HRP-labelled anti-rabbit IgG were then added as primary and secondary antibody, respectively, and binding was detected as described above.
Background: An ELISA detects its analyte on a solid surface through an enzyme-linked reagent.

Data set [2] relates to 786-O cells. Kind of data set: Cytokine release by ELISA in 786-O culture supernatants. Type of data set: cell-based, human. The note with it: 24 h post-treatment, 25 μg/ml, alone or complexed with LPS. On the procedure:
(§2) For treatments, cells were stimulated in complete medium with endotoxin-free IFI16 (25 μg/ml), endotoxin-free IFI16ΔHINB (25 μg/ml), MPLA, DPLA, LPS-F583, LPS-EB, LPS-RS, alone or pre-complexed by O/N incubation at 4°C, unless specified otherwise. Additionally, cells were stimulated with supernatants of untreated or UVB-treated U2OS or U2OS-IFI16^-/- cells alone or preincubated O/N at 4°C with LPS-EB, or LPS-RS. LPS variants or lipid A moieties were used at a concentration of 10 ng/ml. All treatments were carried out at 37°C and 5% CO2.
Cytokines secreted in culture supernatants after treatments were analyzed using human IL-6 DuoSet ELISA and human IL-8 DuoSet ELISA (all from R&D Systems), human TNF-α Uncoated ELISA and human IL-1β Uncoated ELISA (Thermo Fisher Scientific) according to the manufacturer’s instructions. Absorbance was measured using a Spark multimode microplate reader (Tecan).

Data set [3] concerns NF-κB. The experiment in a line: ELISA-based transcription factor binding assay, 786-O nuclear extracts. Type of data set: cell-based, human. To be noted: 2 h, IFI16 25 μg/ml, LPS-EB 10 ng/ml. On the procedure:
(§3) Nuclear extracts were prepared using NE-PER Nuclear and Cytoplasmic Extraction Reagents (Thermo Fisher Scientific), according to the manufacturer’s instructions. NF-κB binding activity to a DNA probe containing its binding consensus sequence was measured by Universal Transcription Factor Assay Colorimetric kit (Merck Millipore). […] The following biotinylated oligonucleotides were used: sense (biotin): 5’-[…]-3’; antisense: 5’-[…]-3’.

Data set [4] relates to gram-positive bacteria (Staphylococcus aureus, Staphylococcus epidermidis, Streptococcus pyogenes). Kind of data set: Whole cell ELISA on formalin-fixed gram-positive bacteria. To be noted: formalin-fixed bacteria as solid phase. Type of data set: binding. The method, then: as §1
The target in data set [5] is T1, TLR4/MD2 receptor (Homo sapiens, UniProt O00206+Q9Y6Y9). Kind of data set: Co-immunoprecipitation with anti-TLR4 antibody from treated 786-O cells. Type of data set: cell-based. The arrangement: endogenous in cells; host or cells: 786-O. The note with it: 786-O cells stimulated 1 h; extracts untreated or DNase I-treated. The method, then:
Co-immunoprecipitation of TLR4 with interacting proteins was performed using the Dynabeads Protein G Immunoprecipitation Kit (ThermoFisher), according to the manufacturer’s instructions with minor modifications. Briefly, after lysis of treated cells, 20 μg of total cell extracts were kept as the input control, while 90 μg of total cell extracts were incubated for 1 h at RT with 2.5 μg of anti-TLR4 antibody previously conjugated with magnetic beads. The resulting complexes were then washed, eluted, denatured, and subjected to Western blotting as described above. For DNase-treated cell extracts, DNase I (Sigma Aldrich) was added at a 1:10 dilution and incubated for 15 min at RT. Images were acquired, and densitometry of the bands was performed using Quantity One software (version 4.6.9, Bio-Rad). Densitometry values were normalized using the corresponding loading controls.
Target sequence in this assay (O00206 24-839): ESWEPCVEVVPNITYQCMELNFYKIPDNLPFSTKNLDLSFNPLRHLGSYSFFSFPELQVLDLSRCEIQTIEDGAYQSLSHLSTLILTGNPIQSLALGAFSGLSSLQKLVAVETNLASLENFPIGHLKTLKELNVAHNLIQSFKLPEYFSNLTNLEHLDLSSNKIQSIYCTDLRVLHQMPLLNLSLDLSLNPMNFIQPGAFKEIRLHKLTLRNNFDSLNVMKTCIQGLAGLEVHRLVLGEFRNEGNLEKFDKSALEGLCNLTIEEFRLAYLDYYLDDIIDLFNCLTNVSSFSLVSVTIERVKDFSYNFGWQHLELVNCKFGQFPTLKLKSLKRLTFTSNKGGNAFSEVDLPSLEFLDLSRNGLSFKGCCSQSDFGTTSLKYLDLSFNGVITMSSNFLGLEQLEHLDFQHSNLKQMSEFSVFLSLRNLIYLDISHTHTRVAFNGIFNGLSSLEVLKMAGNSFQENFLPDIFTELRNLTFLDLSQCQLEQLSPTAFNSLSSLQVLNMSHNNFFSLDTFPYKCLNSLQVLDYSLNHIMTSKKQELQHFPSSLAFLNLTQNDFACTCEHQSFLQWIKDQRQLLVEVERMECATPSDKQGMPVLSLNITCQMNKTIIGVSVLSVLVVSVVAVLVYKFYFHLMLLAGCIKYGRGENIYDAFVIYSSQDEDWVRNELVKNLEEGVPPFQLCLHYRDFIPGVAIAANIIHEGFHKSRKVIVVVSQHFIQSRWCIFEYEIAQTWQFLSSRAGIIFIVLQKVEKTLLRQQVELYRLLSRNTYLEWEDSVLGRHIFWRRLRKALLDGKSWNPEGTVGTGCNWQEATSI
Target sequence in this assay (Q9Y6Y9 17-160 limits assumed): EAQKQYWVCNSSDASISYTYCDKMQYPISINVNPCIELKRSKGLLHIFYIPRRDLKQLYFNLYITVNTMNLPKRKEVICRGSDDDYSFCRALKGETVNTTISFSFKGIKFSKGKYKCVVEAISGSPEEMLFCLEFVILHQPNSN

Data set [6] is described as follows: In vitro pull-down assay with biotin-LPS-EB and streptavidin beads. The data set is classed as binding, E. coli O111:B4. The note with it: 3 μg recombinant protein; 10 μg biotin-LPS-EB. The method, then:
Biotin-labeled LPS-EB (10 μg) was incubated with 30 μl of streptavidin sepharose high performance beads (GE Healthcare) for 3 h at 4°C. After a washing step, 3 μg of recombinant IFI16, PYRIN, HINA, HINB, IFI16ΔHINB, or GST were added and incubated O/N at 4°C. After five washes with 1X PBS with 0.25% Triton X-100 (Sigma-Aldrich), samples were boiled in sample buffer containing SDS and β-mercaptoethanol and centrifuged. Supernatants were separated on a 7.5% or 12% SDS-polyacrylamide gel (Bio-Rad). Gels were stained with Coomassie brilliant blue (Serva Electrophoresis GmbH) for protein visualization.

Data set [7] deals with 786-O cells. The experiment in a line: qRT-PCR of proinflammatory cytokine mRNA in 786-O cells. Type of data set: cell-based, human. The note with it: 24 h, IFI16 25 μg/ml, over mock-treated cells. On the procedure: as §2
(§4) Quantitative real-time PCR (qRT-PCR) was performed on a CFX96 Real-Time PCR Detection System (Bio-Rad) as previously described. Total RNA was extracted using TRI Reagent (Sigma-Aldrich), and 1 μg was retrotranscribed using an iScript cDNA Synthesis Kit (Bio-Rad). Reverse-transcribed cDNAs were amplified in duplicate using SsoAdvanced Universal SYBR Green Supermix (Bio-Rad). The glyceraldehyde 3-phosphate dehydrogenase (GAPDH) gene was used as housekeeping gene to normalize for variations in cDNA levels. The relative normalized expression after stimulation as compared to control was calculated as fold change = 2 ^-Δ(ΔCT) where ΔCT = CTtarget—CTGADPH and Δ(ΔCT) = ΔCTstimulated - ΔCTcontrol. The primer sequences are available upon request.
A general note: Real-time PCR tracks product formation cycle by cycle.

Data set [8] has as its target T1, TLR4/MD2 receptor. The experiment in a line: SPR, analytes over immobilized TLR4/MD2. The arrangement: purchased R&D Systems 3146-TM-050/CF. The data set is classed as binding. The method, then:
The Biacore X100 (GE Healthcare) instrument was used for real-time binding interaction experiments. Recombinant TLR4 or TLR4/MD2 complex was covalently immobilized onto the surface of sensor CM5 (cat # BR100012, GE Healthcare) chips via amine coupling. TLR4 was diluted to a concentration of 10 μg/ml in 10 mM sodium acetate at pH 4.0, while TLR4/MD2 complex was diluted to a concentration of 20 μg/ml in the same buffer. Both proteins were injected on CM5 chips at a flow rate of 10 μl/min, upon activation of the carboxyl groups on the sensor surface with 7-min injection of a mixture of 0.2 M EDC and 0.05 M NHS. The remaining esters were blocked with 7-min injection of ethanolamine. Taking into account the ligands (TLR4 or TLR4/MD2) and analytes (IFI16, LPS-EB or IFI16/LPS-EB) molecular weights (MW) of 70 or 90 kDa, and 90, 10 or 100 kDa respectively, the appropriate ligand density (RL) on the chip was calculated according to the following equation: RL = (ligand MW/analyte MW) × Rmax × (1/Sm), where Rmax is the maximum binding signal and Sm corresponds to the binding stoichiometry. The target capture level of the TLR4 or TLR4/MD2 was of 596.0 or 1,223.9 response units (RUs), respectively. […] Increasing concentrations of endotoxin-free IFI16, LPS-EB or IFI16/LPS-EB complex were flowed over the CM5 sensor chip coated with TLR4 or TLR4/MD2 at a flow rate of 30 μl/min at 25°C with an association time of 120 s for IFI16 alone and the IFI16/LPS-EB complex, and 180 s for LPS-EB, and a dissociation phase of 180 s for IFI16 and IFI16/LPS-EB complex or 600 s for LPS-EB. A single regeneration step with 50 mM NaOH was performed following each analytic cycle. All the analytes tested were diluted in the HBS-EP+ buffer (GE Healthcare). […]
Target sequence in this assay (O00206 24-631 limits assumed): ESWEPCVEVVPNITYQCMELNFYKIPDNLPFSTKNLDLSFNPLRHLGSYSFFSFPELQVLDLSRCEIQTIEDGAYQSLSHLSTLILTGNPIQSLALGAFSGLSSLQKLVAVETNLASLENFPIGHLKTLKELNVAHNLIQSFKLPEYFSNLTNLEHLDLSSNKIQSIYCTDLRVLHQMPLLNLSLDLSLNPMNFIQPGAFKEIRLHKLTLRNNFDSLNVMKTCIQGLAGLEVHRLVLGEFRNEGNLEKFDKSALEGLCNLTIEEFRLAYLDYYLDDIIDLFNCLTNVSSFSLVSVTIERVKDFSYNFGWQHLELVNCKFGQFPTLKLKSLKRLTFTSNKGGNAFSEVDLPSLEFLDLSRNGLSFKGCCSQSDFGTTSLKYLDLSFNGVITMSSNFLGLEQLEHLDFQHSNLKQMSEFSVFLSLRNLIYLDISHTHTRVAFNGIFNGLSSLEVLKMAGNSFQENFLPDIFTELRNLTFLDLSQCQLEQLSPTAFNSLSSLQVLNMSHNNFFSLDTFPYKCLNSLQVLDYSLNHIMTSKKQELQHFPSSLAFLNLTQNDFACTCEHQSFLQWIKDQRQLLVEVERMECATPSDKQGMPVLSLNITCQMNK
Target sequence in this assay (Q9Y6Y9 17-160 limits assumed): as the sequence (Q9Y6Y9 17-160 limits assumed) above

Data set [9] deals with T2, TLR4 (Homo sapiens, UniProt O00206).
T2 construct: purchased R&D Systems 478-TR-050
T2 sequence (O00206 24-631 limits assumed): as the sequence (O00206 24-631 limits assumed) above
The experiment in a line: SPR, IFI16 over immobilized TLR4. To be noted: IFI16 31.25–1,000 nM over immobilized TLR4; read-out: equilibrium dissociation constant (KD). The data set is classed as binding. The method, then:
The Biacore X100 (GE Healthcare) instrument was used for real-time binding interaction experiments. Recombinant TLR4 or TLR4/MD2 complex was covalently immobilized onto the surface of sensor CM5 (cat # BR100012, GE Healthcare) chips via amine coupling. TLR4 was diluted to a concentration of 10 μg/ml in 10 mM sodium acetate at pH 4.0, while TLR4/MD2 complex was diluted to a concentration of 20 μg/ml in the same buffer. Both proteins were injected on CM5 chips at a flow rate of 10 μl/min, upon activation of the carboxyl groups on the sensor surface with 7-min injection of a mixture of 0.2 M EDC and 0.05 M NHS. The remaining esters were blocked with 7-min injection of ethanolamine. Taking into account the ligands (TLR4 or TLR4/MD2) and analytes (IFI16, LPS-EB or IFI16/LPS-EB) molecular weights (MW) of 70 or 90 kDa, and 90, 10 or 100 kDa respectively, the appropriate ligand density (RL) on the chip was calculated according to the following equation: RL = (ligand MW/analyte MW) × Rmax × (1/Sm), where Rmax is the maximum binding signal and Sm corresponds to the binding stoichiometry. The target capture level of the TLR4 or TLR4/MD2 was of 596.0 or 1,223.9 response units (RUs), respectively. […]
(In SPR one partner is held on a chip, and binding of the other changes the refractive index at the surface.)

Data set [10] relates to THP-1 cells. The experiment in a line: qRT-PCR of proinflammatory cytokine mRNA in THP-1 cells. The data set is classed as cell-based, human. To be noted: 24 h, IFI16 25 μg/ml, over mock-treated cells. On the procedure: as §2, §4
Data set [11] deals with NF-κB. The experiment in a line: ELISA-based transcription factor binding assay, THP-1 nuclear extracts. Type of data set: cell-based, human. The note with it: 2 h, IFI16 25 μg/ml, LPS-EB 10 ng/ml. The method, then:
as §3

One may read the Kd as the concentration at which binding is half-saturated.

B1: IFI16: human recombinant IFI16 protein, endotoxin-free (protein)
chain: MGKKYKNIVLLKGLEVINDYHFRMVKSLLSNDLKLNLKMREEYDKIQIADLMEEKFRGDAGLGKLIKIFEDIPTLEDLAETLKKEKLKVKGPALSRKRKKEVDATSPAPSTSSTVKTEGAEATPGAQKRKKSTKEKAGPKGSKVSEEQTQPPSPAGAGMSTAMGRSPSPKTSLSAPPNSSSTENPKTVAKCQVTPRRNVLQKRPVIVKVLSTTKPFEYETPEMEKKIMFHATVATQTQFFHVKVLNTSLKEKFNGKKIIIISDYLEYDSLLEVNEESTVSEAGPNQTFEVPNKIINRAKETLKIDILHKQASGNIVYGVFMLHKKTVNQKTTIYEIQDDRGKMDVVGTGQCHNIPCEEGDKLQLFCFRLRKKNQMSKLISEMHSFIQIKKKTNPRNNDPKSMKLPQEQRQLPYPSEASTTFPESHLRTPQMPPTTPSSSFFTKKSEDTISKMNDFMRMQILKEGSHFPGPFMTSIGPAESHPHTPQMPPSTPSSSFLTTLKPRLKTEPEEVSIEDSAQSDLKEVMVLNATESFVYEPKEQKKMFHATVATENEVFRVKVFNIDLKEKFTPKKIIAIANYVCRNGFLEVYPFTLVADVNADRNMEIPKGLIRSASVTPKINQLCSQTKGSFVNGVFEVHKKNVRGEFTYYEIQDNTGKMEVVVHGRLTTINCEEGDKLKLTCFELAPKSGNTGELRSVIHSHIKVIKTRKNKKDILNPDSSMETSPDFFF
On to B1, for which the “IFI16 binding to surface of gram-negative bacteria” value in [1] is “strongly associated with the surface of both gram-negative bacteria species”. Besides, the IL-1β release result in [2] was “neither IFI16 nor IFI16ΔHINB per se or after forming a complex with LPS induced IL-1β release”. In addition, the “NF-κB binding activity fold induction vs untreated cells” value in [3] came out at 2.2 fold; in [11] it was 2.4 fold. In addition, the “IFI16 binding to gram-positive bacteria” value in data set [4] is on record as “no IFI16 binding could be detected”. Besides, the “Co-immunoprecipitation with TLR4/MD2” value in data set [5] was “co-immunoprecipitated with TLR4/MD2 receptor”. Moreover, the “Pull-down by biotin-LPS-EB (Coomassie band)” value in [6] is given as “readily detect a highly reproducible ~100-kDa band”. For the same molecule, the “IL-1β gene expression fold induction” value is 13 fold in data set [7] and 72 fold in data set [10]. For the same molecule, the “dissociation rate constant (Kd)” value in [8] is 0.00614 s⁻¹. The same molecule showed a Ka in data set [8] (association rate constant) of 9070 M⁻¹ s⁻¹. For the same molecule, the “dissociation rate constant (koff)” value in [8] (dissociation rate constant) was determined as 0.00614 s⁻¹. Also, in data set [8] (maximum response), the Rmax is 26.09 RU. Moreover, the dissociation constant (Kd) amounted to 680 nM in data set [8] (text / Fig 8C legend, read-out: equilibrium dissociation constant (KD)) and 130 nM in [9].
